In the DeepSol protein solubility set:

Assay: soluble on expression in E. coli; label from the status in PepcDB or PDB records

**Q.** With “MSVAVATLHAAASGAVLRRRRTYIHPQQPAADVCPQACTRICPPPPLPHGLRVRGGHLVRYTACVPAHTGSMSASSTVSDRRVCIFFDCRVAGDGKGYEELRQTVYAQCSQLLTLSYLHYQRSGTTLSATVHLVTHTRVESFATPFCATSTDHPIDSGAAGVISGLRALAAAQPDHSVNACGAAIFGNRMESVLPHVQRALGGSQQRHQLILFCSSYVSHTEATQSLSGLCLDASPHQRLRCILVDWEAVCVTVGELASNVRVYRCSRSARQLQAAMQEILSLFLLPDVRSSRRLGLQLGLQAVPVIATISHYGAFLDGRDTIGSVVATDRASSAAAPMAGGVMHQRLAETNHRHNRANAASVVERDDRDPWSTLHLRAVLEADNIDESFLMGDTWTLALDTSAASTSTLTSSSAPSWPCTASTVALWHAFCNAFLGDALVFTGEETGIEAHRHAMQRHHHFVAYFMPDRTMRVREIVPPELRFVPLPAFPTREGLREQKAYTTEMQRLREQLVSHCACASFSLDALLSSGGHGAASTP” as the sequence, how does the “soluble on expression in E. coli” value read?
**A.** Its value is “not soluble”.

**Q.** Which “soluble on expression in E. coli” value does the source give for “MAEYLVPKSAVVFEEEIKKSRFITYLQHTEGLEDARAFWAKIKQEHPNARHHCWAAVAGKPTDSLQLGFSDDGEPAGTAGKPMLSALQGSQLGEISAVVVRYYGGILLGTGGLVRAYGNGVQQALKLIESEIKVERTLFKLDCDYGQLRLVQQLCEKYQVEILSQGFQANIHLILGISEKTIEAFSSELTEKSSGRLVIQLLEIGELEHHHHHH” here?
**A.** Its value is “soluble”.

**Q.** For “MDGRPLNRTTRAVAMIAVTIPAHNEQALIGPCLQSIRVAAQHPALQGEAVEIHVALDRCTDQTGVIARAHGAITQEVCGGVGVARAAAASAAIARGAHWLACTDADTRVPPDWLMAQLACAADAFCGVVEVTDWRDHLSQTRAAFLASEIRHDGHPHVHGANLGMRTSAYLAAGGFSNASSSEDVALVAALEQAGMRIARLASPVVNTSARRSARASGGFADYLLRLEAALLAASPSLGLEHHHHHH”, which “soluble on expression in E. coli” value is on record?
**A.** Its value is “not soluble”.

**Q.** For “MGSDKIHHHHHHMFKKVSRDPVHSEIYLYPLEILATDTKVVQRLRFLSQLAGATVVYPGATHTRFAHSLGTMHVAGLYARNLFKESDRIRIVRLAALLHDVGHGPFSHQFDDVVFKRYGYEDGHDEFRNRLITEKLPEEMMRVFNSYNERLKQAVIEDIRESVGEVSLEDAFQEIAKRVVEVYRGEETGSVDFNIIQGPLGADRLDFLLRDSYYSGVGHFAPMNVDRVLRNSLVKEVDGKEILCYHVKVVDNIYSILFSRFMMYKNVYFHKTSRAADLMIQEILLRACEILDLEERLKDLDEFLELTDYSILRELELKGDSETKKLVERFKNRDLWKMVVERPFSAEGFDPSELSLSAARNLIDKIVENIDRVLSSVNVEDSDKSILEEIRDNKEKFFRIDTPYKLTIFHPDEFLQNNVFLYDPKHDEILTVDEYVKKYPAYRLMVSNMIQIVRVYVTEDVREVLFKYGVIPEDGRRVITRW”, which “soluble on expression in E. coli” value is on record?
**A.** The value was “not soluble”.

**Q.** For “MSLVSLPGLPAMISEISKRNNLPTTAVEEALREALLKGYERFRRSQLMGHQFPEEYFNNFEVELDTEEEGFRVLSTKRIVEEVENSDQQISLKEVLEVAEEAQLGDEVVLDVTPEQKDFGRMAAIQTKQVLLQKLRDQQRKIIQEEFQDLEGTVLNARALRFERQSIIVAVQSSFGQPEVEAELPKREQLPNDNYRANSTFRVYLKRVREGSQRGPQLVVSRAAAGLVVDLFSVEVPEIEEEVVRIVAVAREAKPPSPSVGPRTKIAVDTLERDVDPVGACIGARGSRIHAVVNELRGEKIDVIRWSPDPATYIAQALSPARVDQVYLIHAEERHALVIVAEDQLSLAIGKEGQNVRLAARLTGWKIDIKDPETYARDKEAIEQSILERAAASAQARAEREAAEQEAQAKLEAEMAALEAEEAEELEETPEAIAEVEEEVEEWDQDQGPELGEEEELSLEHHHHHH”, which “soluble on expression in E. coli” value is on record?
**A.** Its value is “soluble”.

**Q.** For “MKGTIFAVALNHRSQLDAWQEAFQQSPYKAPPKTAVWFIKPRNTVIGCGEPIPFPQGEKVLSGATVALIVGKTATKVREEDAAEYIAGYALANDVSLPEESFYRPAIKAKCRDGFCPIGETVALSNVDNLTIYTEINGRPADHWNTADLQRNAAQLLSALSEFATLNPGDAILLGTPQARVEIQPGDRVRVLAEGFPPLENPVVDEREVTTRKSFPTLPHPHGTLFALGLNYADHASELEFKPPEEPLVFLKAPNTLTGDNQTSVRPNNIEYMHYEAELVVVIGKQARNVSEADAMDYVAGYTVCNDYAIRDYLENYYRPNLRVKSRDGLTPMLSTIVPKEAIPDPHNLTLRTFVNGELRQQGTTADLIFSVPFLIAYLSEFMTLNPGDMIATGTPKGLSDVVPGDEVVVEVEGVGRLVNRIVSEETAK”, which “soluble on expression in E. coli” value is on record?
**A.** Its value is “soluble”.

**Q.** With “MASIKSYKLKNGQERWEYFVSNGRSNGTGRQQKIHKRGFRSHKEALKAAKIIEGQIASEEFVKENPQKMTISKFMNIWINEYKNNVKEGSRIVYRDAIRMYIDPYIGNYQLNKYKPADHQKFINSLFTNKELGKSKNGLSYNTVKIVNAALSNAFKKAQKLGYIKSNPTYFVEFPLDKVKEKTNKEKKLEFYTLEQENLFLDTARNFDDFMWYVFFLIIFDLGLRKGEVMALRWFNFDFRDNILTFDKQRLYRKEQPGQVILDDVKTDAGKRSLKMTNRVRNSVLELYSINYDLTSNVLPMTNSNQDFLFINHRGKNVGLPIRQRSVDTAWHRIIQKANLPKIRIHDGRHTNAARLRQAGVPLEDIKDMLGHKNVKTTEIYAHVSPEVKERAVNKLELYQMQHKKSGN” as the sequence, how does the “soluble on expression in E. coli” value read?
**A.** Its value is “not soluble”.

**Q.** Which “soluble on expression in E. coli” value does the source give for “MATKNEELPIIDLAATEGYIVDDTDEDDPVLLAPDGTPIDTWRENYPYEERMTRDEYEKTKRALQIELLKWQNWTKDTGQRHIILFEGRDAAGKGGTIKRFNEHLNPRGARTVALEKPSPRESTSWYFQRYIEHFPCAGEIVFFDRSWYNRSGVERVMGFCTESQHAEFLREVPMLENMILGSGISLTKFWFSVTQKEQRTRFAIRQVDPVRQWKLSPMDLASLDRWDDYTRAKEEQFRYTDTDEAPWITIRSNDKKRARINAMRYILSKFEYSNKDHDLVGEPDPLIVMRGRDRIGD” here?
**A.** The value was “not soluble”.

**Q.** For “MAHHHHHHMLWVDKYRPKSLVEVELYPELTEVLKRLAESQDLPHLLLYGPSGTGKKTRAMAVLHHVYGPSVYSLRLEHRSVQVTDSKVVDIATLSSPHHIDINPSDAGNYDRVIVMQMIREIAQTVSLQSSTSNGVKYKVVLLNEVDKMGRAAQHALRRTMEKYMSTCRLVLICNSTSRLIAPLRSRCLAVRVPSHSKENLTKVIRGVCERENRPLPSPEFMATVTQRSEGNLRRALLMVEAAAMTKVDFSGNGADIPQPDWRVFLDEIANDILSEQTPKKLHEIRGKFYNLLGQCVSGELILRLVLEKLMSAVDPALRRPLVALAAQYDHNMKLGTKTIVHLEAFAAGVMQLLKQK”, which “soluble on expression in E. coli” value is on record?
**A.** Its value is “not soluble”.

**Q.** For “MGSDKIHHHHHHMINQERLVNEFMELVQVDSETKFEAEICKVLTKKFTDLGVEVFEDDTMAVTGHGAGNLICTLPATKDGVDTIYFTSHMDTVVPGNGIKPSIKDGYIVSDGTTILGADDKAGLASMFEAIRVLKEKNIPHGTIEFIITVGEESGLVGAKALDRERITAKYGYALDSDGKVGEIVVAAPTQAKVNAIIRGKTAHAGVAPEKGVSAITIAAKAIAKMPLGRIDSETTANIGRFEGGTQTNIVCDHVQIFAEARSLINEKMEAQVAKMKEAFETTAKEMGGHADVEVNVMYPGFKFADGDHVVEVAKRAAEKIGRTPSLHQSGGGSDANVIAGHGIPTVNLAVGYEEIHTTNEKIPVEELAKTAELVVAIIEEVAK”, which “soluble on expression in E. coli” value is on record?
**A.** The value was “not soluble”.

**Q.** For “MLAAFQQQQTRKFSPITNTSASCLNMQPNPPKISIAPSVISVIGVHMEKHKLKIKTGQNIVLSASILPIQATNKELIWSNMNSDIITIYPKGDTVTITGKSAGKAVVIVTTAEGKFRDLCVIHVQPYMTNPK”, which “soluble on expression in E. coli” value is on record?
**A.** Its value is “not soluble”.

**Q.** With “MSDSASGYEYVYYDRQVGAVQKSPNLMNDPKGALFYTLDSVFGDPGDTTGWILYNDEMPADANRSNNATLGHTKGVIAFDIASSSALWLLHSWPKYASPSVPGVPTPLYGQTFLCLSLDLATAGKLAAQMALHQQPQVYLPRTGGLDHTSPLYALTQPLNASAPGDSDSLDFKTRGGVPFKVIAKNRKWGKDFWNDLVGPTLKADMYVETWIRGKIPPVLDSDGVHKTYDIKFIDLRKLGAPWAWPETQDHAKWGITTTDNWVCVGDINRMVTQEKRGGGTIAFQDPKLWKALCETDLIIPPPGKTDAQARAMIRKTHEPAELEHHHHHH” as the sequence, how does the “soluble on expression in E. coli” value read?
**A.** The value was “not soluble”.

**Q.** For “CTPKPKSAQPVAEEFFHNVAAQDFDAAAQLTDQDDSARELLSRSWEGLQAEGLDVSLNKVDAKDTVATAKYTLTWKLPKDRTLSYDTSMTLNRINDQWTIRWQPAAVHPKLAANQHLELRAINAERASVVSSDGAEVLVPGVQYRLIADTQHIIDKAATAQTIATHLRAARAADETVPELSASDIQQALETNRGSYSLAVVNERAGDSIKQALAGVSGIRLNKEAAMVNKDPNFAPDVIRRVSSLVNDQLAGANGWSVDAVTQDGVSMQTIERHAPQVAPAIRISLNHNVQVAAERAVNLRKDKQSMLVAIRPSTGEILAIAQSDLADKQGDLALNGQYPPGSTFKIVTASAGIQDQGLNADSIVPCPGTMNIYGRTVTNYNGFSLGNVPLEKAFARSCNTTFANISEQLNKGQLKEIGRDFGIGIDYDIPGLNTLTGSIPQGDTELARTEAGYGQGE”, which “soluble on expression in E. coli” value is on record?
**A.** Its value is “not soluble”.

**Q.** For “MGHHHHHHSHMGKQKKTRKYATMKRMLSLRDQRLKEKDRLKPKKKEKKDPSALKEREVPQHPSCLFFQYNTQLGPPYHILVDTNFINFSIKAKLDLVQSMMDCLYAKCIPCITDCVMAEIEKLGQKYRVALRIAKDPRFERLPCTHKGTYADDCLVQRVTQHKCYIVATVDRDLKRRIRKIPGVPIMYISNHRYNIERMPDDYGAPRF”, which “soluble on expression in E. coli” value is on record?
**A.** Its value is “not soluble”.

**Q.** With “MAIRSSVLALCVATLLTGCQNLNTNTLMQSGAQAFQAATLSDAQVKALSDQSCEQMDKEAKIAPADSKYTQRLNKIADALGHDINGTPANYKVYLEKDVNAWAMANGCIRVYSGLMDMMNDNEVEGVLGHEMGHVALGHTRKAMQVAYAATAARTAIASAGGVAASLSQSQLADLGEKLVNSQFSQSQESQADDYSFDLLKKRGINREGLASSFEKLAKLDASHESSMFDSHPSSEGRAKHIRERITAEKLEHHHHHH” as the sequence, how does the “soluble on expression in E. coli” value read?
**A.** The value was “soluble”.

**Q.** With “MDYHSNGNGINGMNGSSRHSADGPSTPTHSGNGHSNGEGNSTYWETAPAEMVELADKYNFTINEGSSIQQEALELRSVIRKDLTKKLKIKSGYSRIKLITSDRRQSEFLRYELSDLNEQIADLQEDLQALEMYNSGAFDEDVMYLDNLEDCDVENGPPSKLVILQLELEKELKVKRGLEQFLRGAPDKSKVHGDSQSLLDDSRAKIAMLRMQIERLSQEAPAVEGEPKTKVELAIDDLIIRFHKEKLIMDGSRNMIRILRSKRKPDSKAVDEAMNSYVIASEKADLIKLALLKYASSLPLEHDHRKYLI” as the sequence, how does the “soluble on expression in E. coli” value read?
**A.** The value was “not soluble”.

**Q.** Which “soluble on expression in E. coli” value does the source give for “MGEKIKLEHGAGGEIMEELLRDVILKTLTLKSAGGIGLDALDDGATIPFGDKHIVFTIDGHTVKPLFFPGGDIGRLAVSGTVNDLAVMGAEPIALANSMIIGEGLDMEVLKRVLKSMDETAREVPVPIVTGDTKVVEDKIEMFVITAGIGIAEHPVSDAGAKVGDAVLVSGTIGDHGIALMSHREGIAFETELKSDVAPIWDVVKAVAETIGWENIHAMKDPTRAGLSNALNEIARKSNVGILVREADIPIRPEVRAASEMLGISPYDVANEGKVVMVVAREYAEEALEAMRKTEKGRNAAIIGEVIADYRGKVLLETGIGGKRFMEPPEGDPVPRIC” here?
**A.** Its value is “soluble”.

**Q.** With “MQEKTMKQMQQEVDDYISQFKEGYFSPLAMLARLTEELGELAREVNHYYGEKSKKATEQEKTVEEELGDLLFVLICFANSLGIDLQAAHDRVMDKFRTRDRDRWTRKEEGS” as the sequence, how does the “soluble on expression in E. coli” value read?
**A.** Its value is “not soluble”.

**Q.** With “MSLTPGRFLGWENADTASRTASDAIAVMDRRTWQALTTGHVELPCRRIHAGLWFRLLRTLLDELNTPLSACGTYAGYLRQVWQGCGHPLRAGQSLWRPYETLNPAIRLQMLEAAATAISLIEVRDISPPGEHAKLFWSELQTGFTSGLPAKPPKPEPVNHWQRAVQAISEAIIEARHDPETARSLFAMASYGRRDPASLEQLRATFAKEGIPPEFLSHYEADGPFACLRQNDGLSDKEGHHHHHH” as the sequence, how does the “soluble on expression in E. coli” value read?
**A.** Its value is “not soluble”.
